Experimental data as given in US10160812B2, “Bispecific HER2 antibodies” (MedImmune, LLC, priority 2014, dated 2018).

T1: human HER4 (Homo sapiens, UniProt Q15303)
T1 construct: recombinant extracellular domain proteins: human EGFR, human HER2, human HER3, human HER4, mouse Her2, or cynomolgus monkey Her2
T1 sequence (Q15303 26-651 limits assumed): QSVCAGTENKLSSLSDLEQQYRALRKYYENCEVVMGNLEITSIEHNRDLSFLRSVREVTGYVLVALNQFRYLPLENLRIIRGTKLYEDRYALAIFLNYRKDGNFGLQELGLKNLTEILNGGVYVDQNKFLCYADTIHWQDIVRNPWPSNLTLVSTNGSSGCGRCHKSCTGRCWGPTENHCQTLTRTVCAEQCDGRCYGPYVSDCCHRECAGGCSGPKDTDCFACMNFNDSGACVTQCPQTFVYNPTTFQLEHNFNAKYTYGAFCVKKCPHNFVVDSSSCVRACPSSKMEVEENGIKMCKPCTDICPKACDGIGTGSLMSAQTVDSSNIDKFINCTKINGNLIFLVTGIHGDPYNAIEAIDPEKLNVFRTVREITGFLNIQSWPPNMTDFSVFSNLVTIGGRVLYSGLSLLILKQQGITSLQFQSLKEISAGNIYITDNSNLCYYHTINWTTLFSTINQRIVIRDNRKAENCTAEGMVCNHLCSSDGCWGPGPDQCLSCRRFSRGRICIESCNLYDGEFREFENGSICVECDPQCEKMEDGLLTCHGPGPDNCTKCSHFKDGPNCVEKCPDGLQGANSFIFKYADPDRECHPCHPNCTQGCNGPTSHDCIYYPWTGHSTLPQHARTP

B1: 39S: lead optimized monoclonal antibody derived from the 1.39.1 antibody; VH SEQ ID NO:15, VL SEQ ID NO:16 (antibody, V domains shown)
VH: EVQLVESGGGLVKPGGSLRLSCAASGFTFSSYSMSWVRQAPGKGLEWVSSISSSSSYIYYADSVKGRFTISRDNAKNSLYLQMNSLRAEDTAVYYCARGGDAYNYYYFDYWGQGTLVTVSS
VL: DIVMTQTPLSLSVTPGQPASISCKSSQSVFFRSNNKNILAWYLQKPGQPPQLLIYWASSRESGVPDRFSGSGSGTDFTLKISRVEAEDVGVYYCQQYFGSPFTFGPGTKVDIK

Columns and labels:
SKBR-3 = assay: In vitro cytotoxic activity (Cell Titer Glo); assay type: cell-based, human; settings: SKBR-3, 3 to 4 days; read-out: In vitro potency (EC50 in pM)
Method: (§4) A panel of human cancer cell lines expressing various levels of HER2 was used to evaluate the cytotoxic activity of bispecific ADC (Table 5 in Example 1). Briefly, cells were harvested, resuspended, and plated in serum-containing culture media at a density of 5,000 to 20,000 per well (depending on the growth kinetics of each cell line) of 96-well plates in a volume of 100 μL. A 2× concentration of each dose of antibody or ADC to be tested was prepared by diluting the test articles in culture medium. One hundred microliters of each test article was added to cells in triplicate such that the final dose curve ranged from 5 nM down to 0.08 pM in a stepwise 1:4 serial dilution series. The treated cells were incubated at 37° C./5% CO2 for 3 to 4 days, depending on the growth kinetics of each particular cell line. Cell viability was determined using Cell Titer Glo according to manufacturer's instructions. Data are analyzed by the GraphPad Prism software and presented as percent growth inhibition relative to the untreated control. EC50 values were determined using Sigmoidal non-linear regression analysis with GraphPad Prism software and were summarized in Table 6.

T47D = assay: In vitro cytotoxic activity (Cell Titer Glo); assay type: cell-based, human; settings: 3 to 4 days
Method: Briefly, cells were harvested, resuspended, and plated in serum-containing culture media at a density of 5,000 to 20,000 per well (depending on the growth kinetics of each cell line) of 96-well plates in a volume of 100 μL. A 2× concentration of each dose of antibody or ADC to be tested was prepared by diluting the test articles in culture medium. One hundred microliters of each test article was added to cells in triplicate such that the final dose curve ranged from 5 nM down to 0.08 pM in a stepwise 1:4 serial dilution series. The treated cells were incubated at 37° C./5% CO2 for 3 to 4 days, depending on the growth kinetics of each particular cell line. Cell viability was determined using Cell Titer Glo according to manufacturer's instructions. Data are analyzed by the GraphPad Prism software and presented as percent growth inhibition relative to the untreated control.

JIMT-1 = assay: In vitro cytotoxic activity (Cell Titer Glo); assay type: cell-based, human; settings: JIMT-1, 3 to 4 days
Method: as §4

mouse Her2 = mouse Her2 (Mus musculus, UniProt P70424); assay: ProteOn SPR binding of 39S to captured Mouse Her2; settings: Mouse Her2 control
Sequence of mouse Her2 (P70424 23-1256): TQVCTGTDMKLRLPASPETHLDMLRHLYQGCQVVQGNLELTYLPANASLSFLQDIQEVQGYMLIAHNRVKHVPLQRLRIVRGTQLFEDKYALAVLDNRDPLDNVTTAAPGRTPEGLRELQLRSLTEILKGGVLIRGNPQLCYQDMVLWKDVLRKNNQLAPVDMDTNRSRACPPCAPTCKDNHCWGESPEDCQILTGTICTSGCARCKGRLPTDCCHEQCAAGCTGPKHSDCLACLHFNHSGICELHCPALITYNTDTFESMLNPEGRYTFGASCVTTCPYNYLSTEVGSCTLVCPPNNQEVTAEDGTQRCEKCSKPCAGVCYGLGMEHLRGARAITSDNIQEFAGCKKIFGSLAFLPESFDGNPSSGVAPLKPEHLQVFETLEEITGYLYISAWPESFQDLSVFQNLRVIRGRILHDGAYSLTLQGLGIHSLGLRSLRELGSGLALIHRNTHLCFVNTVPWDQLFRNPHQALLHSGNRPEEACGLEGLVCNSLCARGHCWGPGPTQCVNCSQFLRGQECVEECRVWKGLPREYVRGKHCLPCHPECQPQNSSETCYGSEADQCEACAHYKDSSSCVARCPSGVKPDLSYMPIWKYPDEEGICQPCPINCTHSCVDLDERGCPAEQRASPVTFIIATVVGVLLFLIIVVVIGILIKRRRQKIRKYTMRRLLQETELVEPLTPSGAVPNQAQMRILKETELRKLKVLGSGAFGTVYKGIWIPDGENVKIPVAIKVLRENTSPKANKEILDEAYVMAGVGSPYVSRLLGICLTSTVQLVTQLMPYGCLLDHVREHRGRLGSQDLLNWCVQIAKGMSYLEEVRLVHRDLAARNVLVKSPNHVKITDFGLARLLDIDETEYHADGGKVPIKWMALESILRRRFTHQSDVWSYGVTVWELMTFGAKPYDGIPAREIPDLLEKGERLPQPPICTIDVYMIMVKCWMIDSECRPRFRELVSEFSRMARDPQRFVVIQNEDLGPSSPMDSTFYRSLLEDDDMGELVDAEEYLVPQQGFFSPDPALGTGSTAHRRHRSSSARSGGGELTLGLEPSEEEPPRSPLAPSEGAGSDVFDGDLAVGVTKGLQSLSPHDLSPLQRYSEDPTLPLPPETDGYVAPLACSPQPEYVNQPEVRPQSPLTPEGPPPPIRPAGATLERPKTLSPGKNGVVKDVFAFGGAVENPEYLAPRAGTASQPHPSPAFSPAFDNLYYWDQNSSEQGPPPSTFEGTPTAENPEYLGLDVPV
From the text: The variant nomenclature denotes types of variants (KO/KI) and the swapped regions with amino acid numbering. Amino acid positions were denoted basing on the numbering scheme of mature human HER2 sequences without its signal peptide. The expression levels of all variants were monitored by an anti-His polyclonal antibody. The binding profiles of 39S to these variants were characterized using a SPR based instrument ProteOn™ by capturing variants on sensor surfaces using anti-human and mouse Her2 polyclonal antibodies.
The binding characteristics of 39S to chimeric human/mouse variants were studied using a ProteOn™ XPR36 instrument (BioRad). Standard amine coupling was used to immobilize an anti-human or mouse Her2 polyclonal antibody (R&D System) in 10 mM sodium acetate (pH 5.0) to the surface of a GLC biosensor chip at ˜5000 resonance units (RU) for each channel. The chimeric proteins in cell culture supernatant were injected and captured by anti-human or mouse polyclonal antibodies onto the GLC surface with a ˜200RU response. Anti-HER2 mAb 39S was diluted in phosphate-buffered saline (PBS) (pH 7.4) with 0.005% Tween-20 from 10 nM to 0.625 nM (1:2 dilution), and injected at 100 μL/min for 180 sec with a 600-second dissociation time. Expression levels of chimeric variants were monitored by flowing anti-His polyclonal antibody (MedImmune) under the same conditions as injecting 39S. […]

human HER3 = biological target: T2, human HER3 (Homo sapiens, UniProt P21860); assay: Capture ELISA binding specificity / species cross-reactivity; settings: recombinant extracellular domain protein
T2 construct: recombinant extracellular domain proteins: human EGFR, human HER2, human HER3, human HER4, mouse Her2, or cynomolgus monkey Her2
From the text: (§1) To determine whether 39S retains the binding specificity and species cross-reactivity of its parental antibody AZ1.39.1, binding of 39S to the receptors of human ErbB family (EGFR, HER2, HER3, and HER4), the mouse Her2, and the cynomolgus monkey Her2 was examined by capture ELISA. Briefly, 96-well plates were coated with one of the following recombinant extracellular domain proteins: human EGFR, human HER2, human HER3, human HER4, mouse Her2, or cynomolgus monkey Her2. Antibody to be tested was prepared by diluting in a stepwise 1:3 serial dilution ranging from 50 nM down to 0.28 pM and then added to the wells in duplicate. After one hour of incubation, plates were washed, and goat anti-human IgG Fab HRP-conjugated secondary antibody was added to each well and the plates were incubated for 1 hour. The plates were washed and TMB substrate was added and incubated for 5-20 min to allow color development. The stop solution was added to the wells at the end of reaction and the plates were read at 450 nm. Binding signal (absorbance at 450 nm) was plotted against antibody concentration using Prism software.
(§2) Binding specificity and species cross-reactivity of bispecific antibodies to the recombinant extracellular domain protein of human EGFR, human HER2, human HER3, human HER4, mouse Her2, or cynomolgus monkey Her2 were determined by capture ELISA as described in Example 1.
(§3) To determine whether the conjugation of tubulysin 1508 alters antigen binding specificity and species cross-reactivity, binding activity of bispecific ADC to the recombinant extracellular domain protein of human EGFR, human HER2, human HER3, human HER4, mouse Her2, and cynomolgus monkey Her2 were confirmed by capture ELISA as described in Example 1.

cynomolgus monkey Her2 = assay: as above; settings: recombinant extracellular domain protein
From the text: as §1, §2, §3

human HER4 = biological target: T1, human HER4; assay: as above; settings: recombinant extracellular domain protein
From the text: as §1, §2, §3

human EGFR = biological target: T3, human EGFR (Homo sapiens, UniProt P00533); assay: as above; settings: recombinant extracellular domain protein
T3 construct: recombinant extracellular domain proteins: human EGFR, human HER2, human HER3, human HER4, mouse Her2, or cynomolgus monkey Her2
From the text: as §1, §2, §3

[1] = biological target: T4, HER2:HER3 heterodimerization (Homo sapiens, UniProt P04626); assay: Disruption of HER2:HER3 heterodimerization (IP/Western, T47D cells); assay type: cell-based; settings: 500 nM antibody, heregulin-b1 8 ng/mL
T4 construct: endogenous in cells; host or cells: T47D
Method: Cells were seeded at a density of 1×10^6 cells/well in a 6-well plate and then incubated overnight at 37° C./5% CO2. […] After pre-treatment, heregulin-β1 was added at a final concentration of 8 ng/mL and cells were incubated for 5 min at 37° C./5% CO2. Cells were then washed twice with ice-cold 1×PBS, lysed and immune-precipitated using mouse anti-human HER2 (clone 44E7) antibody and the Pierce Classic IP Kit from Thermo Scientific according to manufacturer's instructions. Immune-precipitated protein samples were eluted in Laemmli buffer containing 2-mecaptoethanol and analyzed by Western blot using standard protocol. Rabbit anti-human HER2 (clone 29D8) antibody was used to detect HER2 and rabbit anti-human HER3 (C-17) polyclonal antibody was used to detect HER3 in the Western blot analysis.

MCF-7 cells = assay: Ligand-dependent proliferation inhibition assay; assay type: cell-based, human; settings: in combination with trastuzumab or pertuzumab
Method: Cell viability was determined using Cell Titer Glo from Promega according to manufacturer's instructions.

Molecule | EC50 (SKBR-3) [pM] | In vitro potency (EC50 in pM) (T47D) | In vitro potency (EC50 in pM) (JIMT-1) | The binding affinity of 39S (KD) (mouse Her2) | binding by capture ELISA (human HER3) | binding by capture ELISA (cynomolgus monkey Her2) | binding by capture ELISA (human HER4) | binding by capture ELISA (human EGFR) | disruption of HER2:HER3 heterodimerization induced by ligand stimulation [1] | inhibition of ligand-dependent proliferation in combination (MCF-7 cells)
T-DM1 [reference compound] | 82.6 | Inactive | Inactive | – | – | – | – | – | – | –
B1 | – | – | – | No | not | can bind | not | not | can disrupt | additive or synergistic inhibition
